Experimental data: publication PMC6303327

Assays:
[1] = molecular target: Rfa3 OB domain (DBD-E), residues 1-99, without the C-terminal trimerisation helix (S. cerevisiae) (UniProt P26755); assay: MST; as the MST without ssDNA, but in the presence of excess ssDNA (dT10 at 2 µM in each binding reaction; grey trace); replicated twice; apparent EC50 from the Hill equation
[2] = molecular target: Rfa3 OB domain (DBD-E), residues 1-99, without the C-terminal trimerisation helix (S. cerevisiae) (UniProt P26755); assay: MST; 50 nM NT-495-labelled DBD-E mixed with equal volumes of a dilution series of DBD-A; 20 mM Tris pH 7.5, 150 mM NaCl, 0.5 mM TCEP, 0.01% Tween-20, 0.1 mg/ml BSA; 25 °C; no ssDNA (black trace); apparent EC50 from the Hill equation

Chain of Rfa3 OB domain (DBD-E), residues 1-99, without the C-terminal trimerisation helix (S. cerevisiae) (P26755 1-99): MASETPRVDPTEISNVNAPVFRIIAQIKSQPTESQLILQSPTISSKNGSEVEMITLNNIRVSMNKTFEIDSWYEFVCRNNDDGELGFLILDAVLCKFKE
Chain of Rfa1 DNA-binding domain A (DBD-A), residues 178-294 (P22336 178-294): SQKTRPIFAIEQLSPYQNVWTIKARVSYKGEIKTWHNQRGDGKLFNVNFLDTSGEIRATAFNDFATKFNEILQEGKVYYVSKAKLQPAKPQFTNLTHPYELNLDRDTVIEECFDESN

EC50 [1] | EC50 [2] | Substance
84 µM | 96 µM | Rfa1 DNA-binding domain A (DBD-A), residues 178-294 (from UniProt P22336 178-294) (domain or fragment)
25 µM | 23 µM | Rfa1 DNA-binding domain A (DBD-A), residues 178-294, phosphomimetic S178D mutant (from UniProt P22336 178-294) (domain or fragment)
